Among the data in paper PMC12481158 are decrease in donor lifetime against CHUP1:GFP alone and donor (CHUP1:GFP) fluorescence lifetime with KAC1:RFP values, retold here.

For this assay, the target named is CHLOROPLAST UNUSUAL POSITIONING 1 with C-terminal GFP (CHUP1:GFP) (N. benthamiana). As to the kind of experiment: FRET or BRET; nonfitting FLIM-FRET (average-arrival-time FRET) in planta; CHUP1:GFP donor, KAC1:RFP acceptor; mean weighted photon arrival time on chloroplasts juxtaposed to the PM. In general terms: In BRET a luciferase serves as donor, and the signal depends on an acceptor being close.

As to “KINESIN-LIKE PROTEIN FOR ACTIN-BASED CHLOROPLAST MOVEMENT 1 with C-terminal RFP (KAC1:RFP) (natural protein)”, the decrease in donor lifetime against CHUP1:GFP alone worked out at 143 ps and the donor (CHUP1:GFP) fluorescence lifetime with KAC1:RFP turned out to be 2.27 ns.
